Experimental data: US7105327

Target: plasminogen
Sequence (P00747 20-810): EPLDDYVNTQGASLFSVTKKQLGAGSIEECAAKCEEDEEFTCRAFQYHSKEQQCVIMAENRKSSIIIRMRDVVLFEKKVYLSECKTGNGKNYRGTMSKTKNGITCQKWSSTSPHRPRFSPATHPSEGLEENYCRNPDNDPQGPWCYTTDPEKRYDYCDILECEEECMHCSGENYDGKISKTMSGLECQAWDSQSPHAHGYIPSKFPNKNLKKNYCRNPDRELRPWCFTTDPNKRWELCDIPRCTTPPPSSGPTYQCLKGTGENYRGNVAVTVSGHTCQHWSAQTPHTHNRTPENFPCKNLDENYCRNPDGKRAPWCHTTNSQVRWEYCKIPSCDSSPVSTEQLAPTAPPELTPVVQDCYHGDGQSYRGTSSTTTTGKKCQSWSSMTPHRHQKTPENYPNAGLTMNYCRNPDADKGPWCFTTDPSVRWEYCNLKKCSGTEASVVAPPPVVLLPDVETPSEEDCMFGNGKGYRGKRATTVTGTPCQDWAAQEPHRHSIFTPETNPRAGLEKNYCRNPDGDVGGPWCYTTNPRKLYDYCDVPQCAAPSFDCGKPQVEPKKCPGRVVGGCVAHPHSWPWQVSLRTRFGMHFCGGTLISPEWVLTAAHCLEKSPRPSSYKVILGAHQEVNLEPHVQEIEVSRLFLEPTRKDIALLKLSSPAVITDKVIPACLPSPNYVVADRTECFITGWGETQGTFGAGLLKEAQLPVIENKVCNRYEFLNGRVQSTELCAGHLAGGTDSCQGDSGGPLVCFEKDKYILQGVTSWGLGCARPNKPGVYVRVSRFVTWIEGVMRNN

B1: recombinant streptokinase from Streptococcus equisimilis (ATCC 9542) (protein)
chain: IAGPEWLLDRPSVNNSQLVVSVAGTVEGTNQDISLKFFEIDLTSRPAHGGKTEQGLSPKSKPFATDSGAMSHKLEKADLLKAIQEQLIANVHSNDDYFEVIDFASDATITDRNGKVYFADKDGSVTLPTQPVQEFLLSGHVRVRPYKEKPIQNQAKSVDVEYTVQFTPLNPDDDFRPGLKDTKLLKTLAIGDTITSQELLAQAQSILNKNHPGYTIYERDSSIVTHDNDIFRTILPMDQEFTYRVKNREQAYRINKKSGLNEEINNTDLISEKYYVLKKGEKPYDPFDRSHLKLFTIKYVDVDTNELLKSEQLLTASERNLDFRDLYDPRDKAKLLYNNLDAFGIMDYTLTGKVEDNHDDTNRIITVYMGKRPEGENASYHLAYDKDRYTEEEREVYSYLRYTGTPIPDNPNDK
activity in two-stage plasminogen activation assay (plasmin assayed with H-D-Val-Leu-Lys-p-nitroanilide, A405): 97,500+/-2500 IU/mg protein
